Data reported in the supplement of paper PMC7877785.
± gives the uncertainty stated by the source.

Assay: self-splicing fitness, log relative to wild type (ln ratio); higher = more splicing; Tetrahymena group I intron in knt gene, E. coli kanamycin selection, DiMSum; sequences stand for … in CUCUCU…GGAGGGAAAAGUUAUCAGGCAUGCACCUGGUAGCUAGUCUUUAAACCAAUAGAUUGCAUCGGUUUAAAAGGCAAGACCGUCAAAUUGCGGGAAAGGGGUCAACAGCCGUUCAGUACCAAGUCUCAGGGGAAACUUUGAGAUGGCCUUGCAAAGGGUAUGGUAAUAAGCUGACGGACAUGGUCCUAACCACGCAGCCAAGUCCUAAGUCAACAGAUCUUCUGUUGAUAUGGAUGCAGUUCACAGACUAAAUGUCGGUCGGGGAAGAUGUAUUCUUCUCAUAAGAUAUAGUCGGACCUCUCCUUAAUGGGAGCUAGCGGAUGAAGUGAUGCAACACUGGAGCCGCUGGGAACUAAUUUGUAUGCGAAAGUAUAUUGAUUAGUUUUGGAGUACUCGUGGUCG
Procedure, shortened: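 DiMSum derived fitness as the error-weighted combination of fold changes across replicates, kanamycin versus no kanamycin, normalised to wild type. E. coli BL21(DE3) held the library, which randomised all eight P1ex-region intron nucleotides within the knt kanamycin-resistance gene on pET-22b(+). Six replicate transformations grew overnight at 37°C or 30°C on LB agar with or without 25 μg/mL kanamycin, also containing 100 μg/mL carbenicillin, 50 μM IPTG and 0.2% rhamnose, and pooled colonies were amplicon-sequenced on an Illumina HiSeq 2500.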

Sequence | self-splicing fitness (ln) (30 °C) | self-splicing fitness (ln) (37 °C)
AAAUAGCAAUAUUACGCUCG | -0.663 ± 0.12 | -0.925 ± 0.15
AAAUAGCAAUAUUACGCUUC | -3.19 ± 0.3 | -2.99 ± 0.3
AAAUAGCAAUAUUACGGAAG | -3.63 ± 0.25 | -2.15 ± 0.18
AAAUAGCAAUAUUACGGAGU | -3.7 ± 0.2 | -2.61 ± 0.15
AAAUAGCAAUAUUACGGCCC | -0.752 ± 0.16 | -0.254 ± 0.22
AAAUAGCAAUAUUACGGCCU | -0.218 ± 0.095 | 0.661 ± 0.17
AAAUAGCAAUAUUACGGCGC | -1.11 ± 0.15 | -0.73 ± 0.15
AAAUAGCAAUAUUACGGCUC | -0.691 ± 0.14 | 0.393 ± 0.18
AAAUAGCAAUAUUACGGGCU | -2.04 ± 0.15 | -0.367 ± 0.13
AAAUAGCAAUAUUACGGUUG | -1.88 ± 0.094 | -1.33 ± 0.12
AAAUAGCAAUAUUACGUCCC | -0.4 ± 0.21 | -1.33 ± 0.28
AAAUAGCAAUAUUACGUGCA | -1.23 ± 0.063 | -0.426 ± 0.095
AAAUAGCAAUAUUACGUGCC | -1.46 ± 0.084 | -0.919 ± 0.09
AAAUAGCAAUAUUACGUUCG | -1.17 ± 0.088 | -0.371 ± 0.13
AAAUAGCAAUAUUACGUUUC | -3.46 ± 0.39 | –
AACAAGCAAUAUUACGAAAA | -1.7 ± 0.15 | -2.39 ± 0.19
AACAAGCAAUAUUACGACAA | -1.28 ± 0.12 | -1.18 ± 0.098
AACAAGCAAUAUUACGACGA | -1.15 ± 0.07 | -0.468 ± 0.074
AACAAGCAAUAUUACGACGC | -0.761 ± 0.066 | -0.386 ± 0.076
AACAAGCAAUAUUACGACUA | -0.0433 ± 0.095 | 0.555 ± 0.1
AACAAGCAAUAUUACGAUAG | -3.24 ± 0.17 | -2.24 ± 0.18
AACAAGCAAUAUUACGCAUG | -1.7 ± 0.082 | -0.726 ± 0.1
AACAAGCAAUAUUACGCGCU | -0.49 ± 0.07 | -0.454 ± 0.078
AACAAGCAAUAUUACGCUAG | -3.74 ± 0.19 | -1.98 ± 0.15

Sequence | self-splicing fitness (ln) (30 °C) | self-splicing fitness (ln) (37 °C)
AACAAGCAAUAUUACGCUGG | -2.25 ± 0.081 | -1.04 ± 0.1
AACAAGCAAUAUUACGCUUU | -3.18 ± 0.15 | -2.77 ± 0.18
AACAAGCAAUAUUACGGAAA | -3.08 ± 0.15 | -1.34 ± 0.11
AACAAGCAAUAUUACGGCUC | -0.27 ± 0.071 | 0.236 ± 0.1
AACAAGCAAUAUUACGGGGG | -2.94 ± 0.17 | -1.86 ± 0.17
AACAAGCAAUAUUACGGUAC | -3.04 ± 0.16 | -1.99 ± 0.18
AACAAGCAAUAUUACGGUUA | -0.694 ± 0.058 | -0.134 ± 0.064
AACAAGCAAUAUUACGUAGA | -2.88 ± 0.089 | -0.993 ± 0.077
AACAAGCAAUAUUACGUAGU | -2.37 ± 0.11 | -1.47 ± 0.12
AACAAGCAAUAUUACGUCCU | 0.214 ± 0.064 | 0.0455 ± 0.074
AACAAGCAAUAUUACGUGAA | -2.08 ± 0.082 | -0.353 ± 0.081
AACAAGCAAUAUUACGUGGG | -2.93 ± 0.12 | -2.95 ± 0.13
AACAAGCAAUAUUACGUGUU | -4.01 ± 0.19 | -2.05 ± 0.12
AACAAGCAAUAUUACGUUAU | -3.49 ± 0.16 | -2.13 ± 0.12
AACAAGCAAUAUUACGUUCU | -2.01 ± 0.064 | -1.16 ± 0.094
AACCAGCAAUAUUACGAAAA | -1.54 ± 0.099 | -1.3 ± 0.1
AACCAGCAAUAUUACGAAAC | -2.26 ± 0.14 | -0.477 ± 0.16
AACCAGCAAUAUUACGAAGU | -2.26 ± 0.066 | -0.559 ± 0.069
AACCAGCAAUAUUACGAGCU | -2.52 ± 0.087 | -1.82 ± 0.1
AACCAGCAAUAUUACGAUUA | -0.368 ± 0.056 | -0.164 ± 0.067
AACCAGCAAUAUUACGAUUC | -1.63 ± 0.071 | -0.153 ± 0.084
AACCAGCAAUAUUACGCAUA | -0.88 ± 0.078 | 0.309 ± 0.089
AACCAGCAAUAUUACGCAUG | -1.7 ± 0.082 | -0.971 ± 0.083
AACCAGCAAUAUUACGCCCA | -0.618 ± 0.22 | -0.865 ± 0.18
